1 molecule from article PMC8158962, “Modulation of fungal virulence through CRZ1 regulated F-BAR-dependent actin remodeling and endocytosis in chickpea infecting phytopathogen Ascochyta rabiei” can be followed below.

This data set concerns the target T1, His-ArCRZ1 (Ascochyta rabiei, UniProt A0A163H1V7 1-755).
T1 sequence: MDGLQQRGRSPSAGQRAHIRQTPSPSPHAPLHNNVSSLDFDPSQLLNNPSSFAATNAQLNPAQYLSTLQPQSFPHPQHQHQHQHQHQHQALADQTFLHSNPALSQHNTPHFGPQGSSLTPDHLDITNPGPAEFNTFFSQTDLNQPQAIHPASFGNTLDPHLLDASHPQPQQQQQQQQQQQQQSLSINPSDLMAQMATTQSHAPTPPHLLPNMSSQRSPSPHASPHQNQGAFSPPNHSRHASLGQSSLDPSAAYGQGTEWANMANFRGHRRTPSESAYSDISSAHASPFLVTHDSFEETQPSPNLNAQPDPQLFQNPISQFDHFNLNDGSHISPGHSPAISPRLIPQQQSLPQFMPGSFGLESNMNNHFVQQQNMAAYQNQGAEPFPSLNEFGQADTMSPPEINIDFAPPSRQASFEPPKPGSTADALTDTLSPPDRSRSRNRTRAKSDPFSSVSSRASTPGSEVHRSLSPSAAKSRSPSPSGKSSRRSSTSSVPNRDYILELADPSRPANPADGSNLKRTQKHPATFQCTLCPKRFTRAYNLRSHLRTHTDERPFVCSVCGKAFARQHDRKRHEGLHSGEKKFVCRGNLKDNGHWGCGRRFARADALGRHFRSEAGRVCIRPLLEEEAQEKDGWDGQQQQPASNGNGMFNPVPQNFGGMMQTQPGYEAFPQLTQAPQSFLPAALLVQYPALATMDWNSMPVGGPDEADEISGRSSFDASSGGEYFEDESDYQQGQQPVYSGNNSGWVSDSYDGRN
The data set is described as follows: EMSA; 15 mM HEPES pH 7.6, 0.2 mM MgCl2, 35 mM KCl, 1 mM DTT, 1% glycerol, 1 mg poly(dI-dC) (so in the source), 10 ng labelled DNA, 30 uL, 25 min, room temperature; 6% native PAGE. The conditions noted are these: protein: recombinant; tags: His (pET28a(+)); label: 32P end label; blunt.

B1: WT CDRE (GRF/GRR), 58 bp (dsDNA)
DNA 1: CTCCAGCCATCGAGCCCCACCACCAATTGGGCCGCCAGTGAGAGCCCCAAGGCCGTCC
DNA 2: GGACGGCCTTGGGGCTCTCACTGGCGGCCCAATTGGTGGTGGGGCTCGATGGCTGGAG
On to B1, for which the binding result is on record as “binds”.
